B1: TPR t1 (parent)
chain: GACCAAUCUGCCCUCAGAGCUCGAGAACAUCUUCGGAUGCAGAGGAGGCAGGCUUCGGUGGCGCGAUAGCGCCAACGUCCUCAACCUCCAAUGCAUCCCACCACAUGAUGAUGCCUGAAGAGCCUUGGUUUUUUG

Variants of: B1
Assay: polymerase ribozyme fitness, log enrichment relative to wild type (log ratio); higher = more active; in vitro selection for triplet polymerase activity
In short: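 Input and output libraries were sequenced on Illumina after a single in vitro selection round, run in triplicate on PCR-built, transcribed mutant libraries of each subunit of a heterodimeric triplet polymerase ribozyme. Selection annealed libraries to a biotinylated primer, the partner subunit and triplets, incubated them frozen at −7 °C, then gel-excised extended constructs for streptavidin-bead capture and RT-PCR. Genotypes with ≥10 input reads and ≥1 read per output were kept. Fitness is the logarithm, taken in base 2, of genotype enrichment divided by wild-type enrichment, using inverse-variance-weighted replicate averages.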

Going from G60A C94A G128C to G60A C94U, the “polymerase ribozyme fitness (log ratio)” value rises from -3.09 to -0.196.

Compared with G60A C94U C124U, G60A C99A A103C A111C is lower in “polymerase ribozyme fitness (log ratio)” value: 1.59 for the first, -6.52 for the second.

Going from G60A C99U G127A to G60A C101U, the “polymerase ribozyme fitness (log ratio)” value rises from -4.87 to -0.265.

Compared with G60A C104U, G60A C115A is lower in “polymerase ribozyme fitness (log ratio)” value: 0.164 for the first, -0.714 for the second.

First: G60A C115G
Second: G60A G63A
The “polymerase ribozyme fitness (log ratio)” value of the first is higher: -1.65 for the first, -2.96 for the second.

First: G60A G69U C82U C85G U129A
Second: G60A G77C A111C C123A
The “polymerase ribozyme fitness (log ratio)” value of the first is lower: -4.53 for the first, -3.68 for the second.

Compared with G60A G77U, G60A G93A is higher in “polymerase ribozyme fitness (log ratio)” value: -0.312 for the first, 0.0256 for the second.

Going from G60A G110U to G60A G117C, the “polymerase ribozyme fitness (log ratio)” value falls from -1.74 to -2.42.

First: G60A G117U
Second: G60A G120C
The “polymerase ribozyme fitness (log ratio)” value of the first is lower: -1.75 for the first, 0.892 for the second.

Compared with G60A G122A U132C, G60A U92G C115A G120C is lower in “polymerase ribozyme fitness (log ratio)” value: -0.379 for the first, -2.03 for the second.

First: G60A U96C A118G
Second: G60A U112C
The “polymerase ribozyme fitness (log ratio)” value of the first is lower: -0.126 for the first, 1.25 for the second.

First: G60A U116C
Second: G60A U130A
The “polymerase ribozyme fitness (log ratio)” value of the first is lower: -0.935 for the first, -0.439 for the second.

Compared with G60A U130G, G60A U131G is higher in “polymerase ribozyme fitness (log ratio)” value: -0.663 for the first, 0.0187 for the second.

First: G60C A66G
Second: G60C A74U C88G
The “polymerase ribozyme fitness (log ratio)” value of the first is higher: -1.22 for the first, -2.91 for the second.

First: G60C A74U U81G C115A
Second: G60C A83C C115U
The “polymerase ribozyme fitness (log ratio)” value of the first is lower: -3.12 for the first, -1.05 for the second.

Compared with G60C A103U, G60C A111G is higher in “polymerase ribozyme fitness (log ratio)” value: -5.01 for the first, -0.122 for the second.

First: G60C A118U
Second: G60C A121U U125G U129G
The “polymerase ribozyme fitness (log ratio)” value of the first is higher: -0.0622 for the first, -0.914 for the second.

First: G60C C62U
Second: G60C C80A
The “polymerase ribozyme fitness (log ratio)” value of the first is higher: -2.34 for the first, -4.35 for the second.

First: G60C C86U U106A
Second: G60C C86U U106G G120A
The “polymerase ribozyme fitness (log ratio)” value of the first is higher: -0.567 for the first, -2.2 for the second.

First: G60C C88A U112A
Second: G60C C89U C123G
The “polymerase ribozyme fitness (log ratio)” value of the first is lower: -0.182 for the first, 1.06 for the second.

Compared with G60C C94A C102U U106A, G60C C99U is higher in “polymerase ribozyme fitness (log ratio)” value: -6.72 for the first, -4.01 for the second.

Compared with G60C C102A, G60C C104A is higher in “polymerase ribozyme fitness (log ratio)” value: -3.75 for the first, -2.18 for the second.

First: G60C C115A G120U
Second: G60C C123G
The “polymerase ribozyme fitness (log ratio)” value of the first is lower: -0.0517 for the first, 1.61 for the second.

First: G60C C124U G135A
Second: G60C G61A C101A C123A U129A
The “polymerase ribozyme fitness (log ratio)” value of the first is higher: 2.05 for the first, -4.67 for the second.

Compared with G60C G61C, G60C G77U is higher in “polymerase ribozyme fitness (log ratio)” value: -1.72 for the first, -0.19 for the second.

Going from G60C G93U C114A to G60C G107A, the “polymerase ribozyme fitness (log ratio)” value falls from -2.51 to -5.47.

Compared with G60C G107U, G60C G110C is lower in “polymerase ribozyme fitness (log ratio)” value: -4.16 for the first, -4.39 for the second.

G60C G117C A121C and G60C U96A C101A A119U are within 0.2 log units of each other in “polymerase ribozyme fitness (log ratio)” value: -4.85 for the first, -4.66 for the second.

Going from G60C U106C to G60C U106G, the “polymerase ribozyme fitness (log ratio)” value falls from -0.702 to -3.41.

Going from G60C U109G G120A to G60C U112G U116C, the “polymerase ribozyme fitness (log ratio)” value rises from -5.9 to -2.47.

Going from G60C U129C to G60C U130A, the “polymerase ribozyme fitness (log ratio)” value rises from -0.277 to 0.137.

Going from G60C U131A to G60U A68G, the “polymerase ribozyme fitness (log ratio)” value falls from -1.69 to -3.02.

Going from G60U A74U G110U G127A to G60U A75U U87C, the “polymerase ribozyme fitness (log ratio)” value rises from -4.43 to 0.354.

Compared with G60U A83C, G60U A83C G117A is lower in “polymerase ribozyme fitness (log ratio)” value: 0.15 for the first, -2.26 for the second.

Compared with G60U A83U, G60U A100C is lower in “polymerase ribozyme fitness (log ratio)” value: -0.0168 for the first, -1.26 for the second.

Going from G60U A118C to G60U A118U, the “polymerase ribozyme fitness (log ratio)” value rises from -2.43 to -0.552.

First: G60U C62G A83C
Second: G60U C76U
The “polymerase ribozyme fitness (log ratio)” value of the first is higher: -0.657 for the first, -2.74 for the second.

Compared with G60U C79G C114U, G60U C82G is higher in “polymerase ribozyme fitness (log ratio)” value: -4.12 for the first, -1.12 for the second.

Going from G60U C85A A103U A111C to G60U C85G C102A, the “polymerase ribozyme fitness (log ratio)” value rises from -4.74 to -2.17.

Going from G60U C89G U96G U129A to G60U C94A, the “polymerase ribozyme fitness (log ratio)” value rises from -3.9 to -0.596.

First: G60U C101A
Second: G60U C101A C123G
The “polymerase ribozyme fitness (log ratio)” value of the first is lower: -0.256 for the first, 0.75 for the second.

Compared with G60U C102U, G60U C104A is lower in “polymerase ribozyme fitness (log ratio)” value: -1.09 for the first, -1.7 for the second.
